Data from PMC4681293.

Target: IFP2.0 (Deinococcus radiodurans)
Experiment: SEC

- stoichiometry N: 2
Substance: IFP2.0
